Measured values taken from patent publication US20230250139A1 (MIT, published 2023).

Molecular target: the molecule itself
Assay: self-assembly in cultured mouse hippocampal neurons; anti-HA immunofluorescence, confocal

Protein	binding result
CMV-DHF40-Linker8-HA (other) MSSEKEELRERLVKICVELAKLKGDDTLKAAEAAEEAFRLVVLAAMLAGIDSSEVLELAIRLIKTCVVLAAMEGYDISEACRAAAEAFTRVAMAALRAGITSSLVLKAAIELIKECVLNAAVEGYDISEACRAAAEAFKRVAEAAKRAGITSLETLLRAIEEIRKRVEEAQREGNDISEACRQAAEEFRKKAEELKRRGDVGGSGGTGGYPYDVPDYA	binds
CMV-1POK(E239Y)-Linker8-HA (other) MIDYTAAGFTLLQGAHLYAPEDRGICDVLVANGKIIAVASNIPSDIVPNCTVVDLSGQILCPGFIDQHVHLIGGGGEAGPTTRTPEVALSRLTEAGVTSVVGLLGTDSISRHPESLLAKTRALNEEGISAWMLTGAYHVPSRTITGSVEKDVAIIDRVIGVKCAISDHRSAAPDVYHLANMAAESRVGGLLGGKPGVTVFHMGDSKKALQPIYDLLENCDVPISKLLPTHVNRNVPLFYQALEFARKGGTIDITSSIDEPVAPAEGIARAVQAGIPLARVTLSSDGNGSQPFFDDEGNLTHIGVAGFETLLETVQVLVKDYDFSISDALRPLTSSVAGFLNLTGKGEILPGNDADLLVMTPELRIEQVYARGKLMVKDGKACVKGTFETAGGSGGTGGYPYDVPDYA	binds
UBC-1POK(E239Y)-Linker7-HA-Linker3-Top7 (other) MIDYTAAGFTLLQGAHLYAPEDRGICDVLVANGKIIAVASNIPSDIVPNCTVVDLSGQILCPGFIDQHVHLIGGGGEAGPTTRTPEVALSRLTEAGVTSVVGLLGTDSISRHPESLLAKTRALNEEGISAWMLTGAYHVPSRTITGSVEKDVAIIDRVIGVKCAISDHRSAAPDVYHLANMAAESRVGGLLGGKPGVTVFHMGDSKKALQPIYDLLENCDVPISKLLPTHVNRNVPLFYQALEFARKGGTIDITSSIDEPVAPAEGIARAVQAGIPLARVTLSSDGNGSQPFFDDEGNLTHIGVAGFETLLETVQVLVKDYDFSISDALRPLTSSVAGFLNLTGKGEILPGNDADLLVMTPELRIEQVYARGKLMVKDGKACVKGTFETAGGSGGTGYPYDVPDYAGSGDIQVQVNIDDNGKNFDYTYTVTTESELQKVLNELKDYIKKQGAKRVRISITARTKKEAEKFAAILIKVFAELGYNDINVTWDGDTVTVEGQLE	binds
UBC-1POK(E239Y)-Linker25-HA-gsg-Top7 (other) MIDYTAAGFTLLQGAHLYAPEDRGICDVLVANGKIIAVASNIPSDIVPNCTVVDLSGQILCPGFIDQHVHLIGGGGEAGPTTRTPEVALSRLTEAGVTSVVGLLGTDSISRHPESLLAKTRALNEEGISAWMLTGAYHVPSRTITGSVEKDVAIIDRVIGVKCAISDHRSAAPDVYHLANMAAESRVGGLLGGKPGVTVFHMGDSKKALQPIYDLLENCDVPISKLLPTHVNRNVPLFYQALEFARKGGTIDITSSIDEPVAPAEGIARAVQAGIPLARVTLSSDGNGSQPFFDDEGNLTHIGVAGFETLLETVQVLVKDYDFSISDALRPLTSSVAGFLNLTGKGEILPGNDADLLVMTPELRIEQVYARGKLMVKDGKACVKGTFETAGGSGGTGGSGGTGGSGGTGGSGGTGYPYDVPDYAGSGDIQVQVNIDDNGKNFDYTYTVTTESELQKVLNELKDYIKKQGAKRVRISITARTKKEAEKFAAILIKVFAELGYNDINVTWDGDTVTVEGQLE	binds
UBC-1POK(E239Y)-Linker12-gg-HA (other) MIDYTAAGFTLLQGAHLYAPEDRGICDVLVANGKIIAVASNIPSDIVPNCTVVDLSGQILCPGFIDQHVHLIGGGGEAGPTTRTPEVALSRLTEAGVTSVVGLLGTDSISRHPESLLAKTRALNEEGISAWMLTGAYHVPSRTITGSVEKDVAIIDRVIGVKCAISDHRSAAPDVYHLANMAAESRVGGLLGGKPGVTVFHMGDSKKALQPIYDLLENCDVPISKLLPTHVNRNVPLFYQALEFARKGGTIDITSSIDEPVAPAEGIARAVQAGIPLARVTLSSDGNGSQPFFDDEGNLTHIGVAGFETLLETVQVLVKDYDFSISDALRPLTSSVAGFLNLTGKGEILPGNDADLLVMTPELRIEQVYARGKLMVKDGKACVKGTFETAGGSGGTGGSGGTGGYPYDVPDYA	binds
